8 molecules from patent US20180194851A1 (Pfizer, published 2018) can be followed below.

Test [1] concerns the target T1, OX-40 on 300.19 cells (UniProt P43489 29-277, limits assumed).
T1 construct: whole, on cells; also called CD134; TNFRSF4
T1 sequence (looked up): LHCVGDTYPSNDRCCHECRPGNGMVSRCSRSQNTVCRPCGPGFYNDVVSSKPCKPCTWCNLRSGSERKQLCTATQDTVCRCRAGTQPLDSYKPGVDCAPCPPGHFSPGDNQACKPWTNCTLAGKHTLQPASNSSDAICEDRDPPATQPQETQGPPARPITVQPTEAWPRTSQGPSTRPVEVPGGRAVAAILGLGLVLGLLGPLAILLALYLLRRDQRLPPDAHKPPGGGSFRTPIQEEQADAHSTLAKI
Kind of test: FACS on 300.19 cells expressing OX-40.

In test [2] the target is T2, CD40 on 300.19 cells (UniProt P25942 21-277, limits assumed).
T2 construct: whole, on cells; also called TNFRSF5; 300.19 CD40
T2 sequence (P25942 21-277 limits assumed): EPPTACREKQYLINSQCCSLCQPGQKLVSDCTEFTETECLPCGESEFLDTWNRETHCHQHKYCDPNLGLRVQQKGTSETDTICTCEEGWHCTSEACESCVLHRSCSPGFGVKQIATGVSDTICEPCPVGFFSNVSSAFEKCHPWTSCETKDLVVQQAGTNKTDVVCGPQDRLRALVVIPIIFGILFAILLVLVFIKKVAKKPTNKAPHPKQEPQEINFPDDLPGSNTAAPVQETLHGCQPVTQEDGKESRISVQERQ
The test is described as follows: FACS on 300.19 cells expressing CD40.

The target in test [3] is T3, Hu41BB N&E.3 (human, UniProt Q07011 18-255).
T3 construct: Human-to-dog mutant of the human 4-1BB extracellular domain, expressed on transduced 300-19 cells
T3 chain: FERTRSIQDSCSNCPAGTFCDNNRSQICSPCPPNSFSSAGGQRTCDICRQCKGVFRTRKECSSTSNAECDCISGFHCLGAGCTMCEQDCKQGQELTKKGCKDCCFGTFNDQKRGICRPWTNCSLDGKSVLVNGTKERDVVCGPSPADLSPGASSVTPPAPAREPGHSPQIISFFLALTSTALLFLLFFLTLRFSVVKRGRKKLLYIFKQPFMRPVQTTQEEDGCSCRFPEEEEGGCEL
The test is described as follows: FACS, 100 nM antibody, transduced 300-19 cell pools. For orientation: A flow cytometer gives signals particle by particle.

Test [4] concerns the target T4, Hu41BB N&E.4 (human, UniProt Q07011 18-255).
T4 construct: Human-to-dog mutant of the human 4-1BB extracellular domain, expressed on transduced 300-19 cells
T4 chain: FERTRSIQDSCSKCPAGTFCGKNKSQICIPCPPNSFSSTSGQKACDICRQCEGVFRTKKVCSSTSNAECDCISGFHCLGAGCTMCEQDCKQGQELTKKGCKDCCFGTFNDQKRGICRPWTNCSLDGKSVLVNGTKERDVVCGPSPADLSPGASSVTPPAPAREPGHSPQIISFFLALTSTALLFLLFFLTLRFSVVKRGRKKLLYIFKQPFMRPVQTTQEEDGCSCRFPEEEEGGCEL
The description is as above.

Test [5] deals with T5, human 4-1BB extracellular portion, amino acids 24-186 (Fc cleaved off with Factor Xa) (human, UniProt Q07011 24-186).
T5 construct: Made from the R&D Systems 4-1BB/Fc chimera by Factor Xa cleavage; also called recombinant human 4-1BB; the 4-1BB
The test is described as follows: SPR (Biacore 3000), antibody amine-coupled, 4-1BB 24-186 as analyte, 25 C. In general terms: SPR reads the build-up and loss of mass on a sensor chip optically.

For test [6], the target named is T6, Recombinant human 4-1BB/Fc Chimera (R&D Systems #838-4B) (human, UniProt Q07011 24-186).
T6 construct: Bought protein; also called Human 4-1BB IgG1Fc chimera; not shown: Factor Xa-cleavable junction, human IgG1 Fc and 6xHistidine tag of the bought chimera
The test is described as follows: ligand competition ELISA, 4-1BB_IgG1Fc to plate-bound 4-1BBL (competitor 4-1BBL). Background: ELISA stands for enzyme-linked immunosorbent assay.

Test [7] has as its target T6, Recombinant human 4-1BB/Fc Chimera (R&D …). Kind of test: ELISA on coated human 4-1BB IgG1Fc chimera.
The target is the same in test [8]. Kind of test: ELISA on directly coated human 4-1BB/Fc, IgG1.
Test [9] deals with T7, human 4-1BB on cells (human, UniProt Q07011 18-255).
T7 construct: Expressed on stably transfected HEK293/HEK293T cells, transduced 300-19 cells or PHA stimulated human PBMC; also called h41BB; hu4-1BB
The test is described as follows: FACS on HEK293T cells expressing human 4-1BB, IgG1.

The target of test [10] is T8, Hu41BB N&E (human, UniProt Q07011 18-255).
T8 construct: Human-to-dog mutant of the human 4-1BB extracellular domain, expressed on transduced 300-19 cells
T8 chain: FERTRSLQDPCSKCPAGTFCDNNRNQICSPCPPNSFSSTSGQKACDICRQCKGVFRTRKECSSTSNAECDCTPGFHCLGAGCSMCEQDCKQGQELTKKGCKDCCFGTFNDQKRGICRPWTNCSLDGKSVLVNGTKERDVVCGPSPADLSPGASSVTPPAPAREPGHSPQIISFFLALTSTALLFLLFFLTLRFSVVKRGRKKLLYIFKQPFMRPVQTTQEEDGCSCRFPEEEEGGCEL
Kind of test: FACS, 100 nM antibody, transduced 300-19 cell pools.

For test [11], the target named is T9, Hu41BB N&E.1 (human, UniProt Q07011 18-255).
T9 construct: Human-to-dog mutant of the human 4-1BB extracellular domain, expressed on transduced 300-19 cells
T9 chain: T8 chain with D21G, N22K, R24K, S29I
The test is described as above.

Test [12] concerns the target T10, Hu41BB N&E.6 (human, UniProt Q07011 18-255).
T10 construct: Human-to-dog mutant of the human 4-1BB extracellular domain, expressed on transduced 300-19 cells
T10 chain: T8 chain with K13N, T39A, S40G, K43R, A44T, S144A, P145S, D147G, L148F, A152T
The test is described as above.

Test [13] addresses T11, Hu41BB N&E.5 (human, UniProt Q07011 18-255).
T11 construct: Human-to-dog mutant of the human 4-1BB extracellular domain, expressed on transduced 300-19 cells; also called 4-1BB Mutant N&E.5
T11 chain: T8 chain with K13N, T39A, S40G, K43R, A44T, K98Q, C104R, R117Q, R137S, V139A
The test is described as above.

Test [14] has as its target T7, human 4-1BB on cells. The test is described as follows: FACS on transfected cells.
In test [15] the target is T7, human 4-1BB on cells. The test is described as follows: FACS on HEK293 cells expressing human 4-1BB.
Test [16] has as its target T6, Recombinant human 4-1BB/Fc Chimera (R&D …). Kind of test: ELISA on directly coated human 4-1BB/Fc.
Test [17] addresses T12, human 4-1BB (recombinant antigen, construct not stated) (human, UniProt Q07011 24-186).
T12 construct: It may be the 4-1BB/Fc chimera; also called CD137/HUMAN 4-1BB; unlabeled human 4-1BB
The test is described as follows: SPR (Biacore 3000), Fab analyte on amine-coupled human 4-1BB.

Substitutions are numbered along the chain they refer to. Where only a bound is given, the exact number is not on record here.

B1: MOR-7483 (IgG1) (antibody, V domains shown)
VH: QVQLVQSGAEVKKPGESLKISCKGSGYSFSTYWISWVRQMPGKGLEWMGKIYPGDSYTNYSPSFQGQVTISADKSISTAYLQWSSLKASDTAMYYCARGYGIFDYWGQGTLVTVSS
VL: DIELTQPPSVSVAPGQTARISCSGDNIGDQYAHWYQQKPGQAPVVVIYQDKNRPSGIPERFSGSNSGNTATLTISGTQAEDEADYYCSTYTFVGFTTVFGGGTKLTVL
notes: Human IgG1 format, lambda light chain; also called 7483_G1
B1: the binding result in test [1] is “no binding (tested: 1000 nM)”; in [2], “no binding (tested: 1000 nM)”; in [3], “binds”; in test [4], “binds”.

B2: MOR-7480 (IgG2) (antibody, V domains shown)
VH: B1 VH
VL: DIELTQPPSVSVAPGQTARISCSGDNIGDQYAHWYQQKPGQAPVVVIYQDKNRPSGIPERFSGSNSGNTATLTISGTQAEDEADYYCATYTGFGSLAVFGGGTKLTVLG
Take B2: in test [5], the Kd came to 0.57 nM, the koff came out at 0.00023 s⁻¹, the kon worked out at 450000 M⁻¹ s⁻¹ and the t1/2 was 50 min. Besides, in test [6], the “% max inhibition” value turned out to be 98% and the IC50 was 0.125 nM. Further, the EC50 in test [7] was found to be 0.122 nM.

B3: MOR-7480.2 (IgG1) (antibody, V domains shown)
VH: B1 VH with Q1E, K19R
VL: SYELTQPPSVSVSPGQTASITCSGDNIGDQYAHWYQQKPGQSPVVVIYQDKNRPSGIPERFSGSNSGNTATLTISGTQAMDEADYYCATYTGFGSLAVFGGGTKLTVL
notes: Human IgG1 format
Consider B3, for which the binding result in test [3] and in test [4] was “binds” each time.

B4: MOR-7483 (IgG2) (antibody, V domains shown)
VH: B1 VH
VL: B2 VL with A88S, G92F, F93V, S95F, L96T, A97T
notes: also called 7483_G2
In the case of B4, the binding result in test [3] and in test [4] was “binds” throughout.

B5: MOR-7483.1 (IgG1) (antibody, V domains shown)
VH: B1 VH with Q1E, K19R
VL: B3 VL with V45L, A88S, G92F, F93V, S95F, L96T, A97T
notes: Germlined version of MOR-7483, human IgG1 format
In [5], B5 gave an equilibrium dissociation constant (Kd) of 28 nM, a koff of 0.022 s⁻¹ and a kon of 800000 M⁻¹ s⁻¹.

B6: MOR-7361 (IgG1) (antibody, V domains shown)
VH: QVQLVESGGGLVQPGGSLRLSCAASGFTFSDYYMHWVRQAPGKGLEWVSVISGSGSNTYYADSVKGRFTISRDNSKNTLYLQMNSLRAEDTAVYYCARLYAQFEGDFWGQGTLVTVSS
VL: DIELTQPPSVSVAPGQTARISCSGDNIGSKYVSWYQQKPGQAPVLVIYSDSERPSGIPERFSGSNSGNTATLTISGTQAEDEADYYCQSWDGSISRVFGGGTKLTVL
notes: Human IgG1 format, lambda light chain; also called 7361_G1
Turning to B6, the 50% effective concentration (EC50) in test [8] amounted to 0.3 nM; in test [9], 0.8 nM; in test [7], 0.091 nM. Moreover, in test [6], the “% max inhibition” value is 100%. In addition, the IC50 in test [6] was found to be 0.172 nM. In addition, the binding result in [1] was “no binding (tested: 1000 nM)”; in test [2], “no binding (tested: 1000 nM)”; in test [10], “binds”; in test [11], “binds”; in test [12], “binds”; in test [13] it was “binds”. Moreover, the “fold selectivity for 4-1BB versus OX-40 and CD40” value in test [14] is not below 100 fold.

B7: Fab-7361 (Fab, V domains shown)
VH: B6 VH
VL: B6 VL
On to B7, for which the 50% effective concentration (EC50) came to 105 nM in test [15] and 0.6 nM in test [16]. In addition, the Kd in test [17] was 118 nM.

B8: MOR-6032 (IgG1) (antibody, V domains shown)
VH: QVQLVQSGAEVKKPGSSVKVSCKASGGTFNSYAISWVRQAPGQGLEWMGGIIPGFGTANYAQKFQGRVTITADESTSTAYMELSSLRSEDTAVYYCARKNEEDGGFDHWGQGTLVTVSS
VL: DIELTQPPSVSVAPGQTARISCSGDNLGDYYASWYQQKPGQAPVLVIYDDSNRPSGIPERFSGSNSGNTATLTISGTQAEDEADYYCQTWDGTLHFVFGGGTKLTVL
notes: Human IgG1 format, lambda light chain; also called 6032_G1
For the molecule B8, the binding result in [1] is “no binding (tested: 1000 nM)”; in test [2], “no binding (tested: 1000 nM)”; in test [3], “binds”.

Broadly, the Kd is the constant that tells how readily two partners part at equilibrium. For orientation: koff means the rate constant with which the complex falls apart. A high value points to a short-lived complex. What is called kon is the rate constant with which the complex forms. A word on the IC50: it is the point on the concentration scale where inhibition reaches its midpoint. Usually EC50 stands for the concentration at which the effect is half-maximal.
